Experimental data published in US20250066503A1, “CELL INJURY INDUCING THERAPEUTIC DRUG FOR USE IN CANCER THERAPY” (CHUGAI SEIYAKU KABUSHIKI KAISHA, priority 2016, published 2025).
Where a chain is given by its changes, count along the chain named.

B1: TR01H072-E22Hh/none-Hi-Kn010G3/L0000-k0 (antibody, V domains shown)
VH: QVQLVESGGGLVQPGRSLRLSCAASGFTFSNAWMHWVRQAPGKGLEWVAQIKDKSQNYATYYAESVKGRFTISRADSKNSIYLQMNSLKTEDTAVYYCRYVHYAASYGVDIWGQGTTVTVSS
VL: DIVMTQSPLSLPVTPGEPASISCRSSQSLVHSNRNTYLHWYQQKPGQAPRLLIYKVSNRFSGVPDRFSGSGSGTDFTLKISRVEAEDVGVYYCGQGTQVPYTFGQGTKLEIKR
notes: one-arm
B2: TR01H083-E22Hh/none-Hi-Kn010G3/L0212-k0 (antibody, V domains shown)
VH: B1 VH with Q56N, S106G
VL: B1 VL with S25P, L29P, G94Y
notes: one-arm
B3: TR01H105-E22Hh/none-Hi-Kn010G3/L0011-k0 (antibody, V domains shown)
VH: B1 VH with Y62L, A75D, I81L, S106G, I111A
VL: B1 VL with S28P
notes: one-arm
B4: TR01H099-E2702GsKsc/none-Hi-E2704sE/L0011-k0 (antibody, V domains shown)
VH: B1 VH with T60Q, A75D, I81L, S106G, I111A
VL: B1 VL with S28P
notes: one-arm
B5: TR01H104-E22Hh/none-Hi-Kn010G3/L0011-k0 (antibody, V domains shown)
VH: B1 VH with Y62I, A75D, I81L, S106G, I111A
VL: B1 VL with S28P
notes: one-arm
B6: TR01H101-E22Hh/none-Hi-Kn010G3/L0011-k0 (antibody, V domains shown)
VH: B1 VH with T60V, A75D, I81L, S106G, I111A
VL: B1 VL with S28P
notes: one-arm
B7: TR01H082-E22Hh/none-Hi-Kn010G3/L0000-k0 (antibody, V domains shown)
VH: B1 VH with A75D, I81L, S106G, I111A
VL: B1 VL
notes: one-arm
B8: TR01H083-E22Hh/none-Hi-Kn010G3/L0011-k0 (antibody, V domains shown)
VH: B1 VH with Q56N, S106G
VL: B1 VL with S28P
notes: one-arm
B9: TR01H084-E22Hh/none-Hi-Kn010G3/L0000-k0 (antibody, V domains shown)
VH: B1 VH with L11V, R16G, S106G
VL: B1 VL
notes: one-arm
B10: TR01H093-E22Hh/none-Hi-Kn010G3/L0011-k0 (antibody, V domains shown)
VH: B1 VH with K67Q, A75D, I81L, S106G, I111A
VL: B1 VL with S28P
notes: one-arm
B11: TR01H081-E22Hh/none-Hi-Kn010G3/L0000-k0 (antibody, V domains shown)
VH: B1 VH with S106G
VL: B1 VL
notes: one-arm
B12: TR01H112-E2702GsKsc/none-Hi-E2704sE/L0011-k0 (antibody, V domains shown)
VH: B1 VH with L11V, R16G, T60Q, S106G
VL: B1 VL with S28P
notes: one-arm
B13: TR01H084-E22Hh/none-Hi-Kn010G3/L0201-k0 (antibody, V domains shown)
VH: B1 VH with L11V, R16G, S106G
VL: B1 VL with S28P, L29P
notes: one-arm
B14: TR01H094-E22Hh/none-Hi-Kn010G3/L0011-k0 (antibody, V domains shown)
VH: B1 VH with K67S, A75D, I81L, S106G, I111A
VL: B1 VL with S28P
notes: one-arm
B15: TR01H082-E22Hh/none-Hi-Kn010G3/L0222-k0 (antibody, V domains shown)
VH: B1 VH with A75D, I81L, S106G, I111A
VL: B1 VL with L29P, L38I, H39Q, G94Y
notes: one-arm
B16: TR01H075-E22Hh/none-Hi-Kn010G3/L0000-k0 (antibody, V domains shown)
VH: B1 VH with A75D, I81L, I111Y
VL: B1 VL
notes: one-arm
B17: TR01H111-E2702GsKsc/none-Hi-E2704sE/L0011-k0 (antibody, V domains shown)
VH: B1 VH with L11V, R16G, R19K, S106G
VL: B1 VL with S28P
notes: one-arm
B18: TR01H092-E22Hh/none-Hi-Kn010G3/L0011-k0 (antibody, V domains shown)
VH: B1 VH with K67A, A75D, I81L, S106G, I111A
VL: B1 VL with S28P
notes: one-arm
B19: TR01H082-E22Hh/none-Hi-Kn010G3/L0212-k0 (antibody, V domains shown)
VH: B1 VH with A75D, I81L, S106G, I111A
VL: B1 VL with S25P, L29P, G94Y
notes: one-arm
B20: TR01H091-E2702GsKsc/none-Hi-E2704sE/L0011-k0 (antibody, V domains shown)
VH: B1 VH with R19K, A75D, I81L, S106G, I111A
VL: B1 VL with S28P
notes: one-arm
B21: TR01H081-E22Hh/none-Hi-Kn010G3/L0201-k0 (antibody, V domains shown)
VH: B1 VH with S106G
VL: B1 VL with S28P, L29P
notes: one-arm
B22: TR01H100-E22Hh/none-Hi-Kn010G3/L0011-k0 (antibody, V domains shown)
VH: B1 VH with T60S, A75D, I81L, S106G, I111A
VL: B1 VL with S28P
notes: one-arm
B23: TR01H102-E22Hh/none-Hi-Kn010G3/L0011-k0 (antibody, V domains shown)
VH: B1 VH with Y62F, A75D, I81L, S106G, I111A
VL: B1 VL with S28P
notes: one-arm
B24: TR01H096-E22Hh/none-Hi-Kn010G3/L0011-k0 (antibody, V domains shown)
VH: B1 VH with T60G, A75D, I81L, S106G, I111A
VL: B1 VL with S28P
notes: one-arm
B25: TR01H108-E22Hh/none-Hi-Kn010G3/L0011-k0 (antibody, V domains shown)
VH: B1 VH with Y62T, A75D, I81L, S106G, I111A
VL: B1 VL with S28P
notes: one-arm
B26: TR01H107-E22Hh/none-Hi-Kn010G3/L0011-k0 (antibody, V domains shown)
VH: B1 VH with Y62Q, A75D, I81L, S106G, I111A
VL: B1 VL with S28P
notes: one-arm
B27: TR01H083-E22Hh/none-Hi-Kn010G3/L0000-k0 (antibody, V domains shown)
VH: B1 VH with Q56N, S106G
VL: B1 VL
notes: one-arm
B28: TR01H103-E22Hh/none-Hi-Kn010G3/L0011-k0 (antibody, V domains shown)
VH: B1 VH with Y62G, A75D, I81L, S106G, I111A
VL: B1 VL with S28P
notes: one-arm
B29: TR01H110-E2702GsKsc/none-Hi-E2704sE/L0011-k0 (antibody, V domains shown)
VH: B1 VH with L11V, R19K, A75D, I81L, S106G, I111A
VL: B1 VL with S28P
notes: one-arm
B30: TR01H109-E22Hh/none-Hi-Kn010G3/L0011-k0 (antibody, V domains shown)
VH: B1 VH with Y62V, A75D, I81L, S106G, I111A
VL: B1 VL with S28P
notes: one-arm
B31: TR01H114-E2702GsKsc/none-Hi-E2704sE/L0011-k0 (antibody, V domains shown)
VH: B1 VH with L11V, R16G, T60S, S106G
VL: B1 VL with S28P
notes: one-arm
B32: TR01H095-E22Hh/none-Hi-Kn010G3/L0011-k0 (antibody, V domains shown)
VH: B1 VH with T60F, A75D, I81L, S106G, I111A
VL: B1 VL with S28P
notes: one-arm
B33: TR01H074-E22Hh/none-Hi-Kn010G3/L0000-k0 (antibody, V domains shown)
VH: B1 VH with L11V, R16G
VL: B1 VL
notes: one-arm
B34: TR01H073-E22Hh/none-Hi-Kn010G3/L0000-k0 (antibody, V domains shown)
VH: B1 VH with A75D, I81L
VL: B1 VL
notes: one-arm
B35: TR01H076-E22Hh/none-Hi-Kn010G3/L0000-k0 (antibody, V domains shown)
VH: B1 VH with L11V, R16G, I111Y
VL: B1 VL
notes: one-arm
B36: TR01H084-E22Hh/none-Hi-Kn010G3/L0011-k0 (antibody, V domains shown)
VH: B1 VH with L11V, R16G, S106G
VL: B1 VL with S28P
notes: one-arm
B37: TR01H091-E22Hh/none-Hi-Kn010G3/L0011-k0 (antibody, V domains shown)
VH: B1 VH with R19K, A75D, I81L, S106G, I111A
VL: B1 VL with S28P
notes: one-arm
B38: TR01H082-E22Hh/none-Hi-Kn010G3/L0203-k0 (antibody, V domains shown)
VH: B1 VH with A75D, I81L, S106G, I111A
VL: B1 VL with L29P, L38I
notes: one-arm
B39: TR01H081-E22Hh/none-Hi-Kn010G3/L0011-k0 (antibody, V domains shown)
VH: B1 VH with S106G
VL: B1 VL with S28P
notes: one-arm
B40: TR01H083-E22Hh/none-Hi-Kn010G3/L0222-k0 (antibody, V domains shown)
VH: B1 VH with Q56N, S106G
VL: B1 VL with L29P, L38I, H39Q, G94Y
notes: one-arm
B41: TR01H083-E22Hh/none-Hi-Kn010G3/L0201-k0 (antibody, V domains shown)
VH: B1 VH with Q56N, S106G
VL: B1 VL with S28P, L29P
notes: one-arm
B42: TR01H106-E22Hh/none-Hi-Kn010G3/L0011-k0 (antibody, V domains shown)
VH: B1 VH with Y62P, A75D, I81L, S106G, I111A
VL: B1 VL with S28P
notes: one-arm
B43: TR01H090-E22Hh/none-Hi-Kn010G3/L0011-k0 (antibody, V domains shown)
VH: B1 VH with R16G, A75D, I81L, S106G, I111A
VL: B1 VL with S28P
notes: one-arm
B44: TR01H100-E2702GsKsc/none-Hi-E2704sE/L0011-k0 (antibody, V domains shown)
VH: B1 VH with T60S, A75D, I81L, S106G, I111A
VL: B1 VL with S28P
notes: one-arm
B45: TR01H082-E22Hh/none-Hi-Kn010G3/L0201-k0 (antibody, V domains shown)
VH: B1 VH with A75D, I81L, S106G, I111A
VL: B1 VL with S28P, L29P
notes: one-arm
B46: TR01H097-E22Hh/none-Hi-Kn010G3/L0011-k0 (antibody, V domains shown)
VH: B1 VH with T60L, A75D, I81L, S106G, I111A
VL: B1 VL with S28P
notes: one-arm
B47: TR01H099-E22Hh/none-Hi-Kn010G3/L0011-k0 (antibody, V domains shown)
VH: B1 VH with T60Q, A75D, I81L, S106G, I111A
VL: B1 VL with S28P
notes: one-arm
B48: TR01H082-E22Hh/none-Hi-Kn010G3/L0011-k0 (antibody, V domains shown)
VH: B1 VH with A75D, I81L, S106G, I111A
VL: B1 VL with S28P
notes: one-arm
B49: TR01H098-E22Hh/none-Hi-Kn010G3/L0011-k0 (antibody, V domains shown)
VH: B1 VH with T60P, A75D, I81L, S106G, I111A
VL: B1 VL with S28P
notes: one-arm

The binders below were run against T1, soluble human CD3 epsilon chain (human, UniProt P07766 23-126) (assay: SPR).
T1 construct: also called CD3ε
T1 sequence (P07766 23-126 limits assumed): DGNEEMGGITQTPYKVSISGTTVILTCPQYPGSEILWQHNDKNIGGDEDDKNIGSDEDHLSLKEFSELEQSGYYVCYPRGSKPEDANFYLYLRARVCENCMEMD

Kd [nM] | Binder
20.3 | B1
0.0586 | B2
69.5 | B3
14.6 | B4
82.6 | B5
78.7 | B6
73.7 | B7
6.7 | B8
21.3 | B9
68 | B10
15.6 | B11
5.12 | B12
16.5 | B13
70 | B14
101 | B15
98.8 | B16
4.91 | B17
72.1 | B18
4.75 | B19
13.9 | B20
9.46 | B21
62.5 | B22
85.4 | B23
74.7 | B24
69.8 | B25

Kd [nM] | Binder
69.1 | B26
6.83 | B27
77.2 | B28
12.6 | B29
70.6 | B30
4.22 | B31
90.9 | B32
29.1 | B33
59.7 | B34
47.8 | B35
19.8 | B36
66.7 | B37
40.7 | B38
13.5 | B39
9.42 | B40
4.42 | B41
100 | B42
69.5 | B43
11.1 | B44
44.9 | B45
87.6 | B46
77.4 | B47
59.5 | B48
91.4 | B49
